Measured values as given in the supplement of paper PMC5998384.

Columns and labels:
HeLa Kyoto [1] = test: solubility in G1/S (NP-40 vs SDS abundance) (log2 ratio); higher = more soluble; conditions: cell cycle stage: G1/S
HeLa Kyoto [2] = test: solubility change mitosis vs G1/S (difference of NP-40 vs SDS log2 ratios) (log2 ratio difference); higher = more soluble in mitosis
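For solubility change mitosis vs G1/S (difference of NP-40 vs SDS log2 ratios) in this document: synchronized HeLa Kyoto cells (double thymidine block for G1/S, nocodazole release for mitosis), protein amounts in NP-40 versus SDS lysates quantified by mass spectrometry, three biological replicates.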
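For solubility in G1/S (NP-40 vs SDS abundance) in this document: HeLa Kyoto cells arrested at G1/S by double thymidine block, proteins quantified by TMT10plex mass spectrometry in mild NP-40 versus SDS extracts, three biological replicates.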

Chain of MAST2 (chain, as listed by the source): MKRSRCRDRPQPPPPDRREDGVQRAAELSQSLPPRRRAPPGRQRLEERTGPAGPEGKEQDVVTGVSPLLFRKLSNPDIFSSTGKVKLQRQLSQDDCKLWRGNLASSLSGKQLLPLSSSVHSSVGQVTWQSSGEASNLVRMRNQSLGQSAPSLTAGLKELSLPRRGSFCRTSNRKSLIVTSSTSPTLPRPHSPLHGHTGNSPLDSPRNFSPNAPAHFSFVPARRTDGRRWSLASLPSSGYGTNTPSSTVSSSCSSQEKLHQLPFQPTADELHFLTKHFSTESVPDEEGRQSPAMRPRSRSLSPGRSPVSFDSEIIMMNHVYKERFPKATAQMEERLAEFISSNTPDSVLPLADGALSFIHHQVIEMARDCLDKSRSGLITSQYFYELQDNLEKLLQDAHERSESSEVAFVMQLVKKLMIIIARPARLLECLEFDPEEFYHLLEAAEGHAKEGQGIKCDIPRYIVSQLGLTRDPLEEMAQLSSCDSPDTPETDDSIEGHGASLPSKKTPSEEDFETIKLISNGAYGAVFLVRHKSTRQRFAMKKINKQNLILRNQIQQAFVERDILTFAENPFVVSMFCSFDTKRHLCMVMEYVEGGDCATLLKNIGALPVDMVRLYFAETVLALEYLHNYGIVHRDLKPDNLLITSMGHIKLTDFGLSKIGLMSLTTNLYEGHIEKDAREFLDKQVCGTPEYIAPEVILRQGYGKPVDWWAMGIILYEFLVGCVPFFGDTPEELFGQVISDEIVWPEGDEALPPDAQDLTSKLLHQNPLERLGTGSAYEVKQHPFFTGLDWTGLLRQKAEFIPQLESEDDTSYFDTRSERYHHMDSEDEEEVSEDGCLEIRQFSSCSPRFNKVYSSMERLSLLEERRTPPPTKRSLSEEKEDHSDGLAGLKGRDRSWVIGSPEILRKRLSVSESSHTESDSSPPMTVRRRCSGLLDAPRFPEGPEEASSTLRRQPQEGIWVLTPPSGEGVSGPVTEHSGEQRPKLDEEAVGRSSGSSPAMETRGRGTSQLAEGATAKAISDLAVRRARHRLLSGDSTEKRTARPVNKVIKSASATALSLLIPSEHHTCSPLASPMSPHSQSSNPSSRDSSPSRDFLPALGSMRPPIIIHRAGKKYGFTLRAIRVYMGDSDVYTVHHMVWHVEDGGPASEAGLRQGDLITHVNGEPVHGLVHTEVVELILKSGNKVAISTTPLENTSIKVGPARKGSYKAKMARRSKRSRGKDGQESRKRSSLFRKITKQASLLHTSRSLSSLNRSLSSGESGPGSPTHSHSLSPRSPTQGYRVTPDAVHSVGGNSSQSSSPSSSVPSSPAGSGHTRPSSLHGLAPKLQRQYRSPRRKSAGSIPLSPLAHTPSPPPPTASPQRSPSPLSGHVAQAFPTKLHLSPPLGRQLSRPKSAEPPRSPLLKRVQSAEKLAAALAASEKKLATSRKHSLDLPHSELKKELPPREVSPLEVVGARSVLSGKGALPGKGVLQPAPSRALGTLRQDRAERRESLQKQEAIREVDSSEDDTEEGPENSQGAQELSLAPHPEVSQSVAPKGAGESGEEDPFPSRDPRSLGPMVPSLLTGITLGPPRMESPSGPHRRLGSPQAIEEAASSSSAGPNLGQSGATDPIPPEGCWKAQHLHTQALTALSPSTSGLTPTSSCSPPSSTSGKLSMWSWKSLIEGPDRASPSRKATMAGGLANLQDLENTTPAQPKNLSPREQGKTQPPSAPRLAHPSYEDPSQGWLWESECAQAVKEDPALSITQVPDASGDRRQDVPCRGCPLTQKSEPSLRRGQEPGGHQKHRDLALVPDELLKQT

Substance	solubility in G1/S (log2) (HeLa Kyoto [1])	solubility change mitosis (log2) (HeLa Kyoto [2])
MARKSNLPVLLVPFLLCQALVRCSSPLPLVVNTWPFKNATEAAWRALASGGSALDAVESGCAMCEREQCDGSVGFGGSPDELGETTLDAMIMDGTTMDVGAVGDLRRIKNAIGVARKVLEHTTHTLLVGESATTFAQSMGFINEDLSTTASQALHSDWLARNCQPNYWRNVIPDPSKYCGPYKPPGILKQDIPIHKETEDDRGHDTIGMVVIHKTGHIAAGTSTNGIKFKIHGRVGDSPIPGAGAYADDTAGAAAATGNGDILMRFLPSYQAVEYMRRGEDPTIACQKVISRIQKHFPEFFGAVICANVTGSYGAACNKLSTFTQFSFMVYNSEKNQPTEEKVDCI	0.0983	-0.136
MASEAPSPPRSPPPPTSPEPELAQLRRKVEKLERELRSCKRQVREIEKLLHHTERLYQNAESNNQELRTQVEELSKILQRGRNEDNKKSDVEVQTENHAPWSISDYFYQTYYNDVSLPNKVTELSDQQDQAIETSILNSKDHLQVENDAYPGTDRTENVKYRQVDHFASNSQEPASALATEDTSLEGSSLAESLRAAAEAAVSQTGFSYDENTGLYFDHSTGFYYDSENQLYYDPSTGIYYYCDVESGRYQFHSRVDLQPYPTSSTKQSKDKKLKKKRKDPDSSATNEEKDLNSEDQKAFSVEHTSCNEEENFANMKKKAKIGIHHKNSPPKVTVPTSGNTIESPLHENISNSTSFKDEKIMETDSEPEEGEITDSQTEDSYDEAITSEGNVTAEDSEDEDEDKIWPPCIRVIVIRSPVLQIGSLFIITAVNPATIGREKDMEHTLRIPEVGVSKFHAEIYFDHDLQSYVLVDQGSQNGTIVNGKQILQPKTKCDPYVLEHGDEVKIGETVLSFHIHPGSDTCDGCEPGQVRAHLRLDKKDESFVGPTLSKEEKELERRKELKKIRVKYGLQNTEYEDEKTLKNPKYKDRAGKRREQVGSEGTFQRDDAPASVHSEITDSNKGRKMLEKMGWKKGEGLGKDGGGMKTPIQLQLRRTHAGLGTGKPSSFEDVHLLQNKNKKNWDKARERFTENFPETKPQKDDPGTMPWVKGTLE [AGGF1]	-0.292	-0.0218
MASGDLYEVERIVDKRKNKKGKWEYLIRWKGYGSTEDTWEPEHHLLHCEEFIDEFNGLHMSKDKRIKSGKQSSTSKLLRDSRGPSVEKLSHRPSDPGKSKGTSHKRKRINPPLAKPKKGYSGKPSSGGDRATKTVSYRTTPSGLQIMPLKKSQNGMENGDAGSEKDERHFGNGSHQPGLDLNDHVGEQDMGECDVNHATLAENGLGSALTNGGLNLHSPVKRKLEAEKDYVFDKRLRYSVRQNESNCRFRDIVVRKEEGFTHILLSSQTSDNNALTPEIMKEVRRALCNAATDDSKLLLLSAVGSVFCSGLDYSYLIGRLSSDRRKESTRIAEAIRDFVKAFIQFKKPIVVAINGPALGLGASILPLCDIVWASEKAWFQTPYATIRLTPAGCSSYTFPQILGVALANEMLFCGRKLTAQEACSRGLVSQVFWPTTFSQEVMLRVKEMASCSAVVLEESKCLVRSFLKSVLEDVNEKECLMLKQLWSSSKGLDSLFSYLQDKIYEV [CDYL2]	-1.07	0.436
MASKKLGADFHGTFSYLDDVPFKTGDKFKTPAKVGLPIGFSLPDCLQVVREVQYDFSLEKKTIEWAEEIKKIEEAEREAECKIAEAEAKVNSKSGPEGDSKMSFSKTHSTATMPPPINPILASLQHNSILTPTRVSSSATKQKVLSPPHIKADFNLADFECEEDPFDNLELKTIDEKEELRNILVGTTGPIMAQLLDNNLPRGGSGSVLQDEEVLASLERATLDFKPLHKPNGFITLPQLGNCEKMSLSSKVSLPPIPAVSNIKSLSFPKLDSDDSNQKTAKLASTFHSTSCLRNGTFQNSLKPSTQSSASELNGHHTLGLSALNLDSGTEMPALTSSQMPSLSVLSVCTEESSPPNTGPTVTPPNFSVSQVPNMPSCPQAYSELQMLSPSERQCVETVVNMGYSYECVLRAMKKKGENIEQILDYLFAHGQLCEKGFDPLLVEEALEMHQCSEEKMMEFLQLMSKFKEMGFELKDIKEVLLLHNNDQDNALEDLMARAGAS [UBAP1]	0.435	0.147
MASKRKSTTPCMVRTSQVVEQDVPEEVDRAKEKGIGTPQPDVAKDSWAAELENSSKENEVIEVKSMGESQSKKLQGGYECKYCPYSTQNLNEFTEHVDMQHPNVILNPLYVCAECNFTTKKYDSLSDHNSKFHPGEANFKLKLIKRNNQTVLEQSIETTNHVVSITTSGPGTGDSDSGISVSKTPIMKPGKPKADAKKVPKKPEEITPENHVEGTARLVTDTAEILSRLGGVELLQDTLGHVMPSVQLPPNINLVPKVPVPLNTTKYNSALDTNATMINSFNKFPYPTQAELSWLTAASKHPEEHIRIWFATQRLKHGISWSPEEVEEARKKMFNGTIQSVPPTITVLPAQLAPTKVTQPILQTALPCQILGQTSLVLTQVTSGSTTVSCSPITLAVAGVTNHGQKRPLVTPQAAPEPKRPHIAQVPEPPPKVANPPLTPASDRKKTKEQIAHLKASFLQSQFPDDAEVYRLIEVTGLARSEIKKWFSDHRYRCQRGIVHITSESLAKDQLAIAASRHGRTYHAYPDFAPQKFKEKTQGQVKILEDSFLKSSFPTQAELDRLRVETKLSRREIDSWFSERRKLRDSMEQAVLDSMGSGKKGQDVGAPNGALSRLDQLSGAQLTSSLPSPSPAIAKSQEQVHLLRSTFARTQWPTPQEYDQLAAKTGLVRTEIVRWFKENRCLLKTGTVKWMEQYQHQPMADDHGYDAVARKATKPMAESPKNGGDVVPQYYKDPKKLCEEDLEKLVTRVKVGSEPAKDCLPAKPSEATSDRSEGSSRDGQGSDENEESSVVDYVEVTVGEEDAISDRSDSWSQAAAEGVSELAESDSDCVPAEAGQA [ZHX2]	0.134	-0.0666
MASLGPAAAGEQASGAEAEPGPAGPPPPPSPSSLGPLLPLQREPLYNWQATKASLKERFAFLFNSELLSDVRFVLGKGRGAAAAGGPQRIPAHRFVLAAGSAVFDAMFNGGMATTSAEIELPDVEPAAFLALLRFLYSDEVQIGPETVMTTLYTAKKYAVPALEAHCVEFLTKHLRADNAFMLLTQARLFDEPQLASLCLDTIDKSTMDAISAEGFTDIDIDTLCAVLERDTLSIRESRLFGAVVRWAEAECQRQQLPVTFGNKQKVLGKALSLIRFPLMTIEEFAAGPAQSGILSDREVVNLFLHFTVNPKPRVEYIDRPRCCLRGKECCINRFQQVESRWGYSGTSDRIRFTVNRRISIVGFGLYGSIHGPTDYQVNIQIIEYEKKQTLGQNDTGFSCDGTANTFRVMFKEPIEILPNVCYTACATLKGPDSHYGTKGLKKVVHETPAASKTVFFFFSSPGNNNGTSIEDGQIPEIIFYT [BTBD1]	-0.225	0.0289
MAST2	0.087	-0.172
MATAPGPAGIAMGSVGSLLERQDFSPEELRAALAGSRGSRQPDGLLRKGLGQREFLSYLHLPKKDSKSTKNTKRAPRNEPADYATLYYREHSRAGDFSKTSLPERGRFDKCRIRPSVFKPTAGNGKGFLSMQSLASHKGQKLWRSNGSLHTLACHPPLSPGPRASQARAQLLHALSLDEGGPEPEPSLSDSSSGGSFGRSPGTGPSPFSSSLGHLNHLGGSLDRASQGPKEAGPPAVLSCLPEPPPPYEFSCSSAEEMGAVLPETCEELKRGLGDEDGSNPFTQVLEERQRLWLAELKRLYVERLHEVTQKAERSERNLQLQLFMAQQEQRRLRKELRAQQGLAPEPRAPGTLPEADPSARPEEEARWEVCQKTAEISLLKQQLREAQAELAQKLAEIFSLKTQLRGSRAQAQAQDAELVRLREAVRSLQEQAPREEAPGSCETDDCKSRGLLGEAGGSEARDSAEQLRAELLQERLRGQEQALRFEQERRTWQEEKERVLRYQREIQGGYMDMYRRNQALEQELRALREPPTPWSPRLESSKI [N4BP3]	0.203	0.334
MATPGSEPQPFVPALSVATLHPLHHPHHHHHHHQHHGGTGAPGGAGGGGGGSGGFNLPLNRGLERALEEAANSGGLNLSARKLKEFPRTAAPGHDLSDTVQADLSKNRLVEVPMELCHFVSLEILNLYHNCIRVIPEAIVNLQMLTYLNLSRNQLSALPACLCGLPLKVLIASNNKLGSLPEEIGQLKQLMELDVSCNEITALPQQIGQLKSLRELNVRRNYLKVLPQELVDLSLVKFDFSCNKVLVIPICFREMKQLQVLLLENNPLQSPPAQICTKGKVHIFKYLSIQACQIKTADSLYLHTMERPHLHQHVEDGKKDSDSGVGSDNGDKRLSATEPSDEDTVSLNVPMSNIMEEEQIIKEDSCHRLSPVKGEFHQEFQPEPSLLGDSTNSGEERDQFTDRADGLHSEFMNYKARAEDCEELLRIEEDVHWQTEGIISSSKDQDMDIAMIEQLREAVDLLQDPNGLSTDITERSVLNLYPMGSAEALELQDSALNGQIQLETSPVCEVQSDLTLQSNGSQYSPNEIRENSPAVSPTTNSTAPFGLKPRSVFLRPQRNLESIDPQFTIRRKMEQMREEKELVEQLRESIEMRLKVSLHEDLGAALMDGVVLCHLVNHIRPRSVASIHVPSPAVPKLSMAKCRRNVENFLEACRKLGVPEADLCSPCDILQLDFRHIRKTVDTLLALGEKAPPPTSALRSRDLIGFCLVHILFIVLVYITYHWNALSA [LRCH1]	-0.0599	-0.186
MATVLSRALKLPGKKSPDLGEYDPLTQADSDESEDDLVLNLQKNGGVKNGKSPLGEAPEPDSDAEVAEAAKPHLSEVTTEGYPSEPLGGLEQKAASSLVSYVRTSVFLLTLGISMILVLLCAFLIPCPPRDLHSTWSRHLGSQGGGDLSPLELADVNGDGLRDVLLSFVMSRNGSAVGVSRPAANLVCLSGMNGSTLWSSLLPEEARDITCLELMPGSLAETICLVTGTHKMLSAFNATSGKAIWTLNPNYLSNGTLAAPVVVLPDLDEDGVRDLVVLAIGELQPDLCFLLVSGRTGNPVGRPVKYNIVGVGNLIGPQVYITTNGAVYILFGFGNIQAVALRDIFVQAQNRDSSPPSLQIEEPEWEKRRSINLSELIDVYSDGVELLQMVKAPDSNCSNLLITTRQSLVLLRGQNLTPYWALRLQGLRSQPTPGYFTDDQTLDFLLQIQDGVGMKKMMVVDGDSGSIVWSYRAPCHMKETPATSAVTSDQKSVFLFWAEGLSAASPNSDIILGTEPPSLHHLYLLHPAFPSILLDLANTTGTVTASEVGINDLWKDAFYVTRTTGPSSEGHPAALVVSKLSLRWALMEGQMAQLQESTPKIGRGELRRFLSRIKFVEAPYEI [KIAA1467]	0.0831	-0.0551
MATVQEKAAALNLSALHSPAHRPPGFSVAQKPFGATYVWSSIINTLQTQVEVKKRRHRLKRHNDCFVGSEAVDVIFSHLIQNKYFGDVDIPRAKVVRVCQALMDYKVFEAVPTKVFGKDKKPTFEDSSCSLYRFTTIPNQDSQLGKENKLYSPARYADALFKSSDIRSASLEDLWENLSLKPANSPHVNISATLSPQVINEVWQEETIGRLLQLVDLPLLDSLLKQQEAVPKIPQPKRQSTMVNSSNYLDRGILKAYSDSQEDEWLSAAIDCLEYLPDQMVVEISRSFPEQPDRTDLVKELLFDAIGRYYSSREPLLNHLSDVHNGIAELLVNGKTEIALEATQLLLKLLDFQNREEFRRLLYFMAVAANPSEFKLQKESDNRMVVKRIFSKAIVDNKNLSKGKTDLLVLFLMDHQKDVFKIPGTLHKIVSVKLMAIQNGRDPNRDAGYIYCQRIDQRDYSNNTEKTTKDELLNLLKTLDEDSKLSAKEKKKLLGQFYKCHPDIFIEHFGD [DEPDC7]	0.222	-0.0977
